Experimental data: patent publication US20260217843A1 (APOGEE THERAPEUTICS, published 2026)
Numbering of substitutions follows the chain as printed.

T1: Recombinant Human OX40L Protein, His Tag (Acro Cat. IL3-H52H4) (human, UniProt P23510 51-183)
T1 construct: Bought His-tagged protein; also called hOX40L
T1 sequence: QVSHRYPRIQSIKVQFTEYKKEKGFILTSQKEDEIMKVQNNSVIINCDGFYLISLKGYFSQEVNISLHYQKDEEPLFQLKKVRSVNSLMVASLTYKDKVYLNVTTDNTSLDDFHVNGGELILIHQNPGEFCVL

T2: Recombinant Cynomolgus OX40L Protein, His Tag (SINO BIOLOGICAL, Cat. 11057-C07H) (cynomolgus, UniProt G7NVH7 51-183)
T2 construct: Bought protein
T2 sequence: T1 sequence with R5Q, K23E

T3: hOX40L on hOX40L-expressing CHO cells (human, UniProt P23510 1-183)
T3 construct: also called cell surface OX40L
T3 sequence: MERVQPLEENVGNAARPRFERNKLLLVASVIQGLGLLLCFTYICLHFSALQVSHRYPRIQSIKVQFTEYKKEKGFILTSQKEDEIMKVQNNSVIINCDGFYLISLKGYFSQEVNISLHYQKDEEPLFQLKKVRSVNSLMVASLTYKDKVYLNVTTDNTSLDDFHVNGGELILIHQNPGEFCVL

T4: hOX40L added as soluble protein in cell assays (human, UniProt P23510 51-183, limits assumed)
T4 sequence: T1 sequence

T5: biotinylated hOX40L (human, UniProt P23510 51-183, limits assumed, biotinylated (sites not given))
T5 construct: construct not described
T5 sequence: T1 sequence

T6: human CD32a 167R (human, UniProt P12318 36-218)
T6 construct: numbering not explained
T6 sequence (looked up): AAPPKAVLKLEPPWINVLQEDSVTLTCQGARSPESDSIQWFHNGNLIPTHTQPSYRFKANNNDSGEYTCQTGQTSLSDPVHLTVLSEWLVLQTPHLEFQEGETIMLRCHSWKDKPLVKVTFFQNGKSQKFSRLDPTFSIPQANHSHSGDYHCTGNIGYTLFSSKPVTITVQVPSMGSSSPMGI

T7: human CD32a 167H (human, UniProt P12318 36-218)
T7 construct: numbering not explained
T7 sequence (looked up): T6 sequence (looked up) with R132H

T8: human CD32b (human, UniProt P31994 46-217)
T8 sequence (looked up): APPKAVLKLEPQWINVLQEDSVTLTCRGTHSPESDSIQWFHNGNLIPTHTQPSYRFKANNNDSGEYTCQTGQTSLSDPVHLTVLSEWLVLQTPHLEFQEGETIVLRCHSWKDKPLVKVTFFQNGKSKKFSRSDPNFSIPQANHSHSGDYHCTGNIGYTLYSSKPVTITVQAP

B1: anti-hOX40L antibody clone 105 (antibody, human IgG1, kappa, L234A L235A)
heavy: EVRLVESGGGLVQPGGSLRLSCAASGFTFSSYAMTWVRQAPGKGLEWVSLISGSGGLTKYADSVKGRFTISRDNSKKTLYLQMNSLRAEDTAVYYCAKDEGLTTGEYWGQGTLVTVSSASTKGPSVFPLAPSSKSTSGGTAALGCLVKDYFPEPVTVSWNSGALTSGVHTFPAVLQSSGLYSLSSVVTVPSSSLGTQTYICNVNHKPSNTKVDKKVEPKSCDKTHTCPPCPAPEAAGGPSVFLFPPKPKDTLYITREPEVTCVVVDVSHEDPEVKFNWYVDGVEVHNAKTKPREEQYNSTYRVVSVLTVLHQDWLNGKEYKCKVSNKALPAPIEKTISKAKGQPREPQVYTLPPSRDELTKNQVSLTCLVKGFYPSDIAVEWESNGQPENNYKTTPPVLDSDGSFFLYSKLTVDKSRWQQGNVFSCSVMHEALHNHYTQKSLSLSPG
light: DIQMTQSPSSLSASVGDRVTITCRASQGIRNDLGWYQQKPGKAPKRLIYATSSFQSGVPSRFSGSGSGTEFTLTISSLQPEDFATYYCLQHNSYPFTFGPGTKVDVKRTVAAPSVFIFPPSDEQLKSGTASVVCLLNNFYPREAKVQWKVDNALQSGNSQESVTEQDSKDSTYSLSSTLTLSKADYEKHKVYACEVTHQGLSSPVTKSFNRGEC
B2: anti-hOX40L antibody clone 114 (antibody, human IgG1, kappa, L234A L235A)
heavy: B1 heavy with R3Q, L4V, S31N, A40S, Y80F, V93A, A97V, L113Q
light: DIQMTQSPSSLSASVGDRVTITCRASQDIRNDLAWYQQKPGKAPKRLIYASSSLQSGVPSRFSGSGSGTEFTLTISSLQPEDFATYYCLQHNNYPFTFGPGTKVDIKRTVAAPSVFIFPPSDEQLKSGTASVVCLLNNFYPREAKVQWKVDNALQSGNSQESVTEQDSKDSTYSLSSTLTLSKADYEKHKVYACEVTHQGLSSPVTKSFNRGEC
B3: anti-hOX40L antibody clone 231 (antibody, human IgG1, kappa, L234A L235A)
heavy: QVQLVQSGTEVKKPGASVKVSCKASGYTFTNYDINWVRQATGQGLEWVGWIHPNTGKTGYAQKFQGRVTMTRDISIGTAYMELNSLRSEDTAVYYCARESYDLWSGHSFNWFDPWGQGTLVTVSSASTKGPSVFPLAPSSKSTSGGTAALGCLVKDYFPEPVTVSWNSGALTSGVHTFPAVLQSSGLYSLSSVVTVPSSSLGTQTYICNVNHKPSNTKVDKKVEPKSCDKTHTCPPCPAPEAAGGPSVFLFPPKPKDTLYITREPEVTCVVVDVSHEDPEVKFNWYVDGVEVHNAKTKPREEQYNSTYRVVSVLTVLHQDWLNGKEYKCKVSNKALPAPIEKTISKAKGQPREPQVYTLPPSRDELTKNQVSLTCLVKGFYPSDIAVEWESNGQPENNYKTTPPVLDSDGSFFLYSKLTVDKSRWQQGNVFSCSVMHEALHNHYTQKSLSLSPG
light: DIQLTQSPSFLSASVGDRVIITCRASQGITSYLAWYQRKPGKAPKLLIYGATTLQSGVPSRFSGSGSGTEFTLTISSLQPEDFATYYCQQLQSYPYTFGQGTKLEIKRTVAAPSVFIFPPSDEQLKSGTASVVCLLNNFYPREAKVQWKVDNALQSGNSQESVTEQDSKDSTYSLSSTLTLSKADYEKHKVYACEVTHQGLSSPVTKSFNRGEC

Legend:
C1q = target: T9, C1q; assay: SPR (Biacore 8K+), antibody captured by anti-human IgG Fc, C1q injected at 25 nM, mean response
T9 construct: also called Clq
Protocol: (§1) Briefly, a CM5 Series S sensor chip functionalized with anti-human IgG Fc antibody was used to capture antibodies at 5 μg/mL. […] The chip was regenerated with 10 mM glycine pH 1.5 and 10 mM NaOH between runs.

[1] = target: T1, Recombinant Human OX40L Protein, His …; assay: SPR (Biacore 8K), antibody captured, human OX40L injected, 1:1 fit
Protocol: (§2) Samples were injected in a multi-cycle manner over freshly captured mAb, by regenerating the capture surfaces with injection of glycine pH 1.5 for 30 sec at a flow rate of 30 μL/min. The data was processed and analyzed with Biacore Insight Evaluation Software Version 2.0.15.12933 (GE Healthcare) as follows. […] The responses from the two buffer blank injections were then subtracted from the reference subtracted data (2-1) to yield double-referenced data, which were fit to an 1:1 binding model to determine the apparent association (ka) and dissociation rate constants (kd). Their ratio provided the apparent equilibrium dissociation constant or affinity constant (KD=kd/ka).

[2] = target: T2, Recombinant Cynomolgus OX40L Protein, …; assay: SPR (Biacore 8K), antibody captured, cynomolgus OX40L injected, 1:1 fit
Protocol: as §2

[3] = target: T3, hOX40L on hOX40L-expressing CHO cells; assay: flow cytometry on hOX40L-expressing CHO cells, gMFI, nonlinear regression
Protocol: Nonlinear regression was performed on geometric mean fluorescence intensity (gMFI) values to determine EC50 values (FIG. 1, TABLE 8).

[4] = target: T4, hOX40L added as soluble protein in cell …; assay: cell-based or functional assay
human FcRn = human FcRn (human, UniProt P55899 24-297; P61769 21-119); assay: SPR (Biacore 8K+), antibody captured by anti-human kappa, human FcRn injected, pH 5.8; pH 5.8
Protocol: (§3) Briefly, a CM5 Series S sensor chip functionalized with anti-human kappa antibody was used to capture antibodies at 5 μg/mL. […] The chip was regenerated with 10 mM glycine pH 1.5 and 10 mM NaOH between runs.

cynomolgus FcRn = cynomolgus FcRn (cynomolgus, UniProt Q8SPV9 24-297; Q8SPW0 21-119); assay: SPR (Biacore 8K+), antibody captured by anti-human kappa, cynomolgus FcRn injected, pH 5.8; pH 5.8
Protocol: as §3

biotinylated hOX40L = target: T5, biotinylated hOX40L; assay: blocking ELISA: biotinylated hOX40L preincubated with titrated antibody, added to coated hOX40-Fc, Extravidin-HRP
[5] = target: T4, hOX40L added as soluble protein in cell …; assay: cell-based or functional assay; remark: listed apart in the source
human CD16b = human CD16b (human, UniProt O75015 17-200, limits assumed); assay: SPR (Biacore 8K+), antibody captured by anti-human IgG Fc, receptor injected
Protocol: as §1

human CD32a 167R = target: T6, human CD32a 167R; assay: as above
Protocol: as §1

human CD32a 167H = target: T7, human CD32a 167H; assay: as above
Protocol: as §1

human CD16a 176F = target: T10, human CD16a 176F (human, UniProt P08637 17-208); assay: as above
T10 construct: numbering not explained
Protocol: as §1

human CD64 = human CD64 (human, UniProt P12314 16-288); assay: as above
Protocol: as §1

human CD32b = target: T8, human CD32b; assay: as above
Protocol: as §1

human CD16a 176V = target: T11, human CD16a 176V (human, UniProt P08637 17-208); assay: as above
T11 construct: Allelic variant named only as '176V'; numbering not explained
Protocol: as §1

Chain of human CD64 (P12314 16-288 limits assumed): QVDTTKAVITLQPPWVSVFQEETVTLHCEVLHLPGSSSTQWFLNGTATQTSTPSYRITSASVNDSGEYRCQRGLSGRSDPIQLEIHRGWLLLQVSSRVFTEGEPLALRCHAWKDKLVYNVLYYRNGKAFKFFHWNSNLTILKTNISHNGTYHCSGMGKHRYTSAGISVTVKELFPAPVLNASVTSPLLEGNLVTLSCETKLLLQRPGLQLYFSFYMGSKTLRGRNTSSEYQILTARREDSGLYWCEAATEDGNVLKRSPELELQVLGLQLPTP
Chain of human FcRn (P55899 24-297 limits assumed, form in doubt, chain 1 of 2): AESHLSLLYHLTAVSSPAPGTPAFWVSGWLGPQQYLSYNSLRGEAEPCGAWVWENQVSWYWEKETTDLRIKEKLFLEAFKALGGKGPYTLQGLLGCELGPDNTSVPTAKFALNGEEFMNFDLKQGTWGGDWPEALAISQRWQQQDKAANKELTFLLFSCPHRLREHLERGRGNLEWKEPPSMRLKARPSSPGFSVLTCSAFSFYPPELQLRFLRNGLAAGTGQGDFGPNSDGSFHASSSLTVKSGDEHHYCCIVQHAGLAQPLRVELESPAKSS
Chain of human FcRn (P61769 21-119 limits assumed, form in doubt, chain 2 of 2): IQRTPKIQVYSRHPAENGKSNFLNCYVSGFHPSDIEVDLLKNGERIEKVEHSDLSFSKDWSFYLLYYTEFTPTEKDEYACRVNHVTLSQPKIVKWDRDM
T11 sequence (P08637 17-208 F176V limits assumed): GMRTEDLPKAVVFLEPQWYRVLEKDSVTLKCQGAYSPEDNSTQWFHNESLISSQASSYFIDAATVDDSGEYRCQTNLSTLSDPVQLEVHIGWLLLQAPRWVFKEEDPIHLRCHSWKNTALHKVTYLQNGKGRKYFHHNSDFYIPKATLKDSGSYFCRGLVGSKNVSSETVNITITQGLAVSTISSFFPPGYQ
Chain of cynomolgus FcRn (Q8SPV9 24-297 limits assumed, chain 1 of 2): as the sequence (P55899 24-297 limits assumed, form in doubt, chain 1 of 2) above, with N39D, E44Q, G99S, S189G, S190N, L217M, S269T counted along it
Chain of cynomolgus FcRn (Q8SPW0 21-119 limits assumed, chain 2 of 2): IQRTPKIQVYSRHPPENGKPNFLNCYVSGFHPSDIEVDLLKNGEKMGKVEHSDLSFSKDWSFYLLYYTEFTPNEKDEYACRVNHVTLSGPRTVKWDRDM
Chain of human CD16b (O75015 17-200 limits assumed): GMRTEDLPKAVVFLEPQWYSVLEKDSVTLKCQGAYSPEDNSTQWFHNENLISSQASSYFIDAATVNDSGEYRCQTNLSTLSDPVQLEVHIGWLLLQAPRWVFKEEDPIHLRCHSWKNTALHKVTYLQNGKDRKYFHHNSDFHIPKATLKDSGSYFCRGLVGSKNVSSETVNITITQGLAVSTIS
T10 sequence (P08637 17-208 limits assumed): as the sequence (P08637 17-208 F176V limits assumed) above, with V160F counted along it
T9 sequence (P02745 23-245, chain 1 of 3): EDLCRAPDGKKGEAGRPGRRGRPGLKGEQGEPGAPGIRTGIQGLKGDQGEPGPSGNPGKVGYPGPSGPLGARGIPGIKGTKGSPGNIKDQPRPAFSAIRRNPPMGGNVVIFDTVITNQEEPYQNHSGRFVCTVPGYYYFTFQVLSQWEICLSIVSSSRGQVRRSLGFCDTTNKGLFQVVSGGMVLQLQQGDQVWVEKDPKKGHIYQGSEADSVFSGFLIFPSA
T9 sequence (P02746 28-253, chain 2 of 3, further chain): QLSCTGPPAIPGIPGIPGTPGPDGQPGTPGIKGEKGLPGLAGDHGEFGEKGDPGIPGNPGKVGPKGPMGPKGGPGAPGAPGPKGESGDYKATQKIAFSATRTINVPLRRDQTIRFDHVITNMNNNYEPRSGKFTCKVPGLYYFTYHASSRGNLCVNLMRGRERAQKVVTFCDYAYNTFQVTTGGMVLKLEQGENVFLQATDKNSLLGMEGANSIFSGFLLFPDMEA
T9 sequence (P02747 29-245, chain 3 of 3, further chain): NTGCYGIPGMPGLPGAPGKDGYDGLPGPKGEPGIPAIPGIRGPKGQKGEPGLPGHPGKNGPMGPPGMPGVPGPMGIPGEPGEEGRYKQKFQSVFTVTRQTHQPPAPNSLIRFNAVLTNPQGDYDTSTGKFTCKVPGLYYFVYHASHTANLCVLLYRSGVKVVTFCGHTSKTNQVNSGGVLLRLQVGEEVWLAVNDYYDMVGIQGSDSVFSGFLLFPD

Binder | RU at 25 nM C1q (C1q) [RU] | Kd [1] [nM] | koff [1] [s⁻¹] | kon [1] [M⁻¹ s⁻¹] | Kd [2] [nM] | koff [2] [s⁻¹] | kon [2] [M⁻¹ s⁻¹] | Kd (human FcRn) [nM] | koff (human FcRn) [s⁻¹] | kon (human FcRn) [M⁻¹ s⁻¹] | Kd (cynomolgus FcRn) [nM] | koff (cynomolgus FcRn) [s⁻¹] | kon (cynomolgus FcRn) [M⁻¹ s⁻¹] | IC50 (biotinylated hOX40L) [nM] | IC50, luminescence (RLU), hOX40 reporter cells with 50 ng/mL hOX40L [5] [nM] | binding result (human CD16b) | binding result (human CD32a 167R) | binding result (human CD32a 167H) | binding result (human CD16a 176F) | binding result (human CD64) | further results
B1 | -3.6 | 0.141 | 0.000125 | 886000 | 0.0494 | 8.09e-05 | 1.64e+06 | 145 | 0.0442 | 306000 | 121 | 0.0453 | 374000 | 1.41 | 0.852 | no binding (tested: 10 µM) | no binding (tested: 8 µM) | no binding (tested: 8 µM) | no binding (tested: 6 µM) | no binding (tested: 12.5 nM) | EC50 [3]: 3.43 nM; Donor 1 IC50, IL-2 release by pre-activated human CD4+ T cells with 20 ng/ml human OX40L [4]: 1.37 nM; Donor 2 IC50, IL-2 release by pre-activated human CD4+ T cells with 20 ng/ml human OX40L [4]: 1.33 nM; Donor 3 IC50, IL-2 release by pre-activated human CD4+ T cells with 20 ng/ml human OX40L [4]: 1 nM; binding result (human CD32b): no binding (tested: 18 µM); binding result (human CD16a 176V): no binding (tested: 6 µM)
B2 | -4.8 | 0.106 | 0.000114 | 1.07e+06 | 0.0336 | 7.73e-05 | 2.3e+06 | 141 | 0.0471 | 333000 | 117 | 0.0445 | 381000 | 1.12 | 0.732 | no binding (tested: 10 µM) | no binding (tested: 8 µM) | no binding (tested: 8 µM) | no binding (tested: 6 µM) | no binding (tested: 12.5 nM) | EC50 [3]: 4.04 nM; Donor 1 IC50, IL-2 release by pre-activated human CD4+ T cells with 20 ng/ml human OX40L [4]: 1.25 nM; Donor 2 IC50, IL-2 release by pre-activated human CD4+ T cells with 20 ng/ml human OX40L [4]: 1.19 nM; Donor 3 IC50, IL-2 release by pre-activated human CD4+ T cells with 20 ng/ml human OX40L [4]: 1.18 nM; binding result (human CD32b): no binding (tested: 18 µM); binding result (human CD16a 176V): no binding (tested: 6 µM)
B3 | 1.8 | 0.137 | 0.00013 | 943000 | 0.0714 | 0.000105 | 1.47e+06 | 141 | 0.0462 | 328000 | 117 | 0.0465 | 398000 | 28.5 | 0.909 | no binding (tested: 10 µM) | no binding (tested: 8 µM) | no binding (tested: 8 µM) | no binding (tested: 6 µM) | no binding (tested: 12.5 nM) | binding result (human CD32b): no binding (tested: 18 µM); binding result (human CD16a 176V): no binding (tested: 6 µM)
